We go through two molecules from patent US20200223925A1 (Hoffmann-La Roche, published 2020).

Experiment [1] concerns the target T1, human Fibroblast Activation Protein (FAP) (human, UniProt Q12884 1-760).
T1 construct: on 3T3-huFAP or MV3 cells in the functional assays; also called huFAP; 3T3-huFAP cells (clone 19)
Nature of the experiment: flow cytometry, 3T3-huFAP cells, PE anti-human IgG secondary, MFI. (In general: A flow cytometer gives signals particle by particle.)
Procedure: (§1) Binding was assessed by flow cytometry with a FACS Fortessa (BD, Software FACS Diva). Binding curves were obtained using GraphPadPrism6.

The next experiment has as its target T2, human CD28 (human, UniProt P10747 19-220).
T2 construct: on primary human T cells in the functional assays; also called huCD28; CHO cells expressing human CD28
Put plainly: flow cytometry, CHO cells stably overexpressing human CD28, monovalent one-armed IgG from supernatant, PE anti-human IgG secondary, MFI.

Procedure for human CD28: as §1

B1: Molecule E: FAP(4B9)-CD28(SA) 1+2 format (bispecific antibody, human IgG1, kappa, L234A L235A)
light: not shown
heavy 1: not shown
heavy 2: QVQLVQSGAEVKKPGASVKVSCKASGYTFTSYYIHWVRQAPGQGLEWIGCIYPGNVNTNYNEKFKDRATLTVDTSISTAYMELSRLRSDDTAVYFCTRSHYGLDWNFDVWGQGTTVTVSSASTKGPSVFPLAPSSKSTSGGTAALGCLVKDYFPEPVTVSWNSGALTSGVHTFPAVLQSSGLYSLSSVVTVPSSSLGTQTYICNVNHKPSNTKVDKKVEPKSCDKTHTCPPCPAPEAAGGPSVFLFPPKPKDTLMISRTPEVTCVVVDVSHEDPEVKFNWYVDGVEVHNAKTKPREEQYNSTYRVVSVLTVLHQDWLNGKEYKCKVSNKALGAPIEKTISKAKGQPREPQVCTLPPSRDELTKNQVSLSCAVKGFYPSDIAVEWESNGQPENNYKTTPPVLDSDGSFFLVSKLTVDKSRWQQGNVFSCSVMHEALHNHYTQKSLSLSPGGGGGSGGGGSGGGGSGGGGSEIVLTQSPGTLSLSPGERATLSCRASQSVTSSYLAWYQQKPGQAPRLLINVGSRRATGIPDRFSGSGSGTDFTLTISRLEPEDFAVYYCQQGIMLPPTFGQGTKVEIK
notes: bivalent anti-CD28(SA), monovalent anti-FAP (VH on knob chain, VL on hole chain), huIgG1 PG-LALA; also called P1AD9011; FAP-CD28(SA) 1+2
As to B1, the binding result in experiment [1] is “binds”.

B2: CD28(SA)_variant_28 (antibody, human IgG1, kappa, L234A L235A)
heavy: not shown
light: not shown
chain: DKTHTCPPCPAPEAAGGPSVFLFPPKPKDTLMISRTPEVTCVVVDVSHEDPEVKFNWYVDGVEVHNAKTKPREEQYNSTYRVVSVLTVLHQDWLNGKEYKCKVSNKALGAPIEKTISKAKGQPREPQVCTLPPSRDELTKNQVSLSCAVKGFYPSDIAVEWESNGQPENNYKTTPPVLDSDGSFFLVSKLTVDKSRWQQGNVFSCSVMHEALHNRFTQKSLSLSP
notes: monovalent one-armed IgG-like construct; from supernatant; also called P1AE3084
On to B2, for which the binding result with human CD28 is on record as “binds”.
